Tests used:
[1] = target: mouse IGF-I (mouse, UniProt P05017 49-118); assay: cell-based or functional assay
[2] = target: mouse IGF-II (mouse, UniProt P09535 25-91); assay: cell-based or functional assay
[3] = target: T1, human insulin-like growth factor-II (IGF-II) (human, UniProt P01344 25-91); assay: cell-based or functional assay
[4] = target: T2, human insulin-like growth factor-I (IGF-I) (human, UniProt P05019 49-118); assay: Biacore low-resolution screen, mAb captured, IGF-I injected
T2 construct: also called IGF1; IGF-1
Description: (§1) The label-free surface plasmon resonance (SPR), or Biacore, was utilized to measure the antibody affinity to the antigen. For this purpose, a high-density goat anti-human antibody surface over a CM5 Biacore chip was prepared using routine amine coupling. All the mAbs were diluted to approximately 20 μg/ml in HBS-P running buffer containing 100 gg/ml BSA. Each mAb was captured on a separate surface using a 30-second contact time at 10 μL/min., and a 5-minute wash for stabilization of the mAb baseline.
(§2) The samples were prepared in the HBS-P running buffer described above. […] Drift-corrected binding data for the 34 mAbs was prepared by subtracting the signal from a control flow cell and subtracting the baseline drift of a buffer injected just prior to each antigen injection. […] A mass transport coefficient was used in fitting the data.

[5] = target: T2, human insulin-like growth factor-I …; assay: Biacore high-resolution, mAb captured, IGF-I injected over a range of concentrations
[6] = target: T1, human insulin-like growth factor-II …; assay: cell-based or functional assay; remark: listed apart in the source
[7] = target: T2, human insulin-like growth factor-I …; assay: cell-based or functional assay
[8] = target: T1, human insulin-like growth factor-II …; assay: Biacore low-resolution screen, mAb captured, IGF-II injected; off-rate held constant in the fit; off-rate marked with asterisk; low-resolution screen, 5-minute dissociation
Description: as §1, §2

[9] = target: T1, human insulin-like growth factor-II …; assay: Biacore low-resolution screen, mAb captured, IGF-II injected
Description: as §1, §2

[10] = target: T1, human insulin-like growth factor-II …; assay: cell-based or functional assay; remark: listed apart in the source
[11] = target: T2, human insulin-like growth factor-I …; assay: cell-based or functional assay; remark: listed apart in the source
[12] = target: T1, human insulin-like growth factor-II …; assay: cell-based or functional assay; remark: listed apart in the source
[13] = target: T2, human insulin-like growth factor-I …; assay: cell-based or functional assay; remark: listed apart in the source
[14] = target: T2, human insulin-like growth factor-I …; assay: Biacore low-resolution analysis, IGF-I; low-resolution screen, not high-resolution (294.0 pM)
Description: as §1, §2

[15] = target: T1, human insulin-like growth factor-II …; assay: Biacore low-resolution analysis, IGF-II
Description: as §1, §2

[16] = target: T1, human insulin-like growth factor-II …; assay: Biacore high-resolution, mAb captured, IGF-II injected over a range of concentrations

B1: mAb 7.159.2 (antibody, V domains shown)
VH: QVQLVQSGAEVKKPGASVKVSCKASGYTFTSYDINWVRQATGQGLEWMGWMNPNSGNTGYAQKFQGRVTMTRNTSISTAYMELSSLRSEDTAVYYCARDPYYYYYGMDVWGQGTTVTVSS
VL: QSVLTQPPSVSAAPGQKVTISCSGSSSNIENNHVSWYQQLPGTAPKLLIYDNNKRPSGIPDRFSGSKSGTSATLGITGLQTGDEADYYCETWDTSLSAGRVFGGGTKLTVLG
notes: Fully human XenoMouse hybridoma mAb, lambda light chain (V1-19/JL2); Sister clones 7.159.1 and 7.159.2 are said to be identical; also called 7.159.1; 7_159_1
Mouse IGF-I EC50 (nM), n = 1, phosphorylation of hIGF-IR in NIH3T3 cells [1]: 2.8 nM | Mouse IGF-I EC50 (nM), n = 2, phosphorylation of hIGF-IR in NIH3T3 cells [1]: 5.7 nM | Mouse IGF-II EC50 (nM), n = 1, phosphorylation of hIGF-IR in NIH3T3 cells [2]: 3.1 nM | Mouse IGF-II EC50 (nM), n = 2, phosphorylation of hIGF-IR in NIH3T3 cells [2]: 5 nM | EC50 (nM), n = 1, IGF-II Proliferation, BxPC3 cells [3]: 0.8 nM | EC50 (nM), n = 2, IGF-II Proliferation, BxPC3 cells [3]: 0.9 nM | Max % Inhibition (133.3 nM), n = 2, IGF-II Proliferation, BxPC3 cells [3]: 118% | Max % Inhibition (333.3 nM), n = 1, IGF-II Proliferation, BxPC3 cells [3]: 120% | Kd [4]: 216 pM | koff [4]: 0.00093 s⁻¹ | kon [4]: 4.3e+06 M⁻¹ s⁻¹ | Kd [5]: 294 pM | % Inhibition, mean (n = 2), IGF-II Proliferation Assay, NIH3T3/hIGF-IR cells [6]: 99.3% | EC50 (nM), mean (n = 2), IGF-II Proliferation Assay, NIH3T3/hIGF-IR cells [6]: 7.6 nM | % Inhibition, mean (n = 3), IGF-I Proliferation Assay, NIH3T3/hIGF-IR cells [7]: 77% | EC50 (nM), mean (n = 3), IGF-I Proliferation Assay, NIH3T3/hIGF-IR cells [7]: 24.1 nM | koff [8]: < 1e-05 s⁻¹ | Kd [9]: < 2.86 pM | kon [9]: 3.5e+06 M⁻¹ s⁻¹ | % MAX Activation, mean (n = 2), IGF-II pTYR of hIGF-IR in NIH3T3 cells [10]: 28.6% | EC50 (nM), mean (n = 2), IGF-II pTYR of hIGF-IR in NIH3T3 cells [10]: 3.1 nM | % MAX Activation, mean (n = 2), IGF-I pTYR of hIGF-IR in NIH3T3 cells [11]: 16.5% | EC50 (nM), mean (n = 2), IGF-I pTYR of hIGF-IR in NIH3T3 cells [11]: 7.4 nM | EC50 (nM), n = 1, IGF-II pTYR, BxPC3 cells [12]: 1.6 nM | EC50 (nM), n = 2, IGF-II pTYR, BxPC3 cells [12]: 1.7 nM | Max % Inhibition (133.3 nM), n = 2, IGF-II pTYR, BxPC3 cells [12]: 91.2% | Max % Inhibition (333.3 nM), n = 1, IGF-II pTYR, BxPC3 cells [12]: 100% | EC50 (nM), n = 1, IGF-I pTYR, BxPC3 cells [13]: 3.3 nM | EC50 (nM), n = 2, IGF-I pTYR, BxPC3 cells [13]: 1.6 nM | Max % Inhibition (333.3 nM), n = 1, IGF-I pTYR, BxPC3 cells [13]: 100% | Max % Inhibition (333.3 nM), n = 2, IGF-I pTYR, BxPC3 cells [13]: 100% | Kd [14]: 216 pM | Kd [15]: 2.9 pM | Kd [16]: 1.9 pM

From patent US20070196376A1 (AstraZeneca / MedImmune, published 2007)
